The values below come from paper PMC6731145.

One series addresses TFAP-2α (human, UniProt P05549 1-437). The experiment in a line: EMSA.
The target in another series is CEBPβ T167D (mouse, UniProt P28033-3 1-275, T167D). The experiment in a line: EMSA. A general note: A gel shift assay detects complexes by their altered migration in electrophoresis.
CEBPβ T167D, sequence (P28033 22-296 T188D): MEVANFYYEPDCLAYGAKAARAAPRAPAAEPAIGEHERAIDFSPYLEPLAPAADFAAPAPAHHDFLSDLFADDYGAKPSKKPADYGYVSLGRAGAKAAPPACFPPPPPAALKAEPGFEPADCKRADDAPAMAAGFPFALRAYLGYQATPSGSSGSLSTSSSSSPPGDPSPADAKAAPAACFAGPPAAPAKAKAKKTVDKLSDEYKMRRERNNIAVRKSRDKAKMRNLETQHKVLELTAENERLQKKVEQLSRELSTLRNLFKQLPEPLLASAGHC

TFAP-2α, sequence (P05549 whole entry): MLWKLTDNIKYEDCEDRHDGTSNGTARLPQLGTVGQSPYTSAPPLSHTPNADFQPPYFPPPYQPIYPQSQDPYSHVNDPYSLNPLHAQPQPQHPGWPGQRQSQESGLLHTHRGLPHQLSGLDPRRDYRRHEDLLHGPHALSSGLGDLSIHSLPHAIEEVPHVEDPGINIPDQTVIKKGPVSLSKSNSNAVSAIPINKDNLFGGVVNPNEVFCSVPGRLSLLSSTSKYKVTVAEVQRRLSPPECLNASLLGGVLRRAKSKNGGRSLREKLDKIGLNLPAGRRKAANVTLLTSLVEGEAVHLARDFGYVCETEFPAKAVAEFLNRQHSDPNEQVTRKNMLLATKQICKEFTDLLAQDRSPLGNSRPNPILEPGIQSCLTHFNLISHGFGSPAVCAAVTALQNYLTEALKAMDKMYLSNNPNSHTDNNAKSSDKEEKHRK

B1: NRCAM-DNA (dsDNA)
DNA 1: GATCCATTACTTCTGAAACAGATGACTCCCAGCAGCTGCTGCCTGTGGCCCACAGGGCTTCCTGCCCTGCATGACAGCTGCACATCACATCCTGTGGTCATACTACTTCAGCCGCTTCTACGGCCAGATACAAAAGTGGGTGGGGAACATAGGCAAGGGATC
DNA 2: GATCCCTTGCCTATGTTCCCCACCCACTTTTGTATCTGGCCGTAGAAGCGGCTGAAGTAGTATGACCACAGGATGTGATGTGCAGCTGTCATGCAGGGCAGGAAGCCCTGTGGGCCACAGGCAGCAGCTGCTGGGAGTCATCTGTTTCAGAAGTAATGGATC
As to B1, the binding result in the series with TFAP-2α was “binds”.

B2: CX3CR1-DNA (dsDNA)
DNA 1: GATCCGCAGGGCCTCTCGGCTGCTGATCTTCAGCTGGTTGCTGAGAGTTGCAGCATTGCTGAGTCTTAGCAATGGATACTTCCCGATTCCCCTCACAAAAATAGGTCAGTCTGTCTGGCTAGTTCTGTACTTGCAGACACAGGGCATGTGGGGTTCCGGATC
DNA 2: GATCCGGAACCCCACATGCCCTGTGTCTGCAAGTACAGAACTAGCCAGACAGACTGACCTATTTTTGTGAGGGGAATCGGGAAGTATCCATTGCTAAGACTCAGCAATGCTGCAACTCTCAGCAACCAGCTGAAGATCAGCAGCCGAGAGGCCCTGCGGATC
Take B2: in the series with CEBPβ T167D, the binding result is reported as “binds”.
